The source of these data is article PMC3974781.

For the experiment, the target named is HA-ASIC2a (mouse acid-sensing ion channel 2a, HA epitope-tagged) (mouse) (UniProt Q925H0).
UniProt Q925H0, sequence (Q925H0 whole entry): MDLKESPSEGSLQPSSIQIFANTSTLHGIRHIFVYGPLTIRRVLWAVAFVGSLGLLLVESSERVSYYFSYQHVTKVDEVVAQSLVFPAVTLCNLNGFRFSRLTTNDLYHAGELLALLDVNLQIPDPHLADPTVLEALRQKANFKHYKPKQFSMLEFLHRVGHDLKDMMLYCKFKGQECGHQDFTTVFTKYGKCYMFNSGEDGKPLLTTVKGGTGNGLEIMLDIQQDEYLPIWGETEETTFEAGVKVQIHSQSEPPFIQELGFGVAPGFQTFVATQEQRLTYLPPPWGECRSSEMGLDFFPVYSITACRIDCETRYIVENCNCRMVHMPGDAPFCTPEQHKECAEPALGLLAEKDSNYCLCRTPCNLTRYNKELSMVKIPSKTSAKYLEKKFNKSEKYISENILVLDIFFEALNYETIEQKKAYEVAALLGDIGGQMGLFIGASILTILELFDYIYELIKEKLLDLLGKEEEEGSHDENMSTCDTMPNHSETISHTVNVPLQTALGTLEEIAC

B1: ASIC1a (mouse acid-sensing ion channel 1a) (natural protein)
chain: MELKTEEEEVGGVQPVSIQAFASSSTLHGLAHIFSYERLSLKRALWALCFLGSLAVLLCVCTERVQYYFCYHHVTKLDEVAASQLTFPAVTLCNLNEFRFSQVSKNDLYHAGELLALLNNRYEIPDTQMADEKQLEILQDKANFRSFKPKPFNMREFYDRAGHDIRDMLLSCHFRGEACSAEDFKVVFTRYGKCYTFNSGQDGRPRLKTMKGGTGNGLEIMLDIQQDEYLPVWGETDETSFEAGIKVQIHSQDEPPFIDQLGFGVAPGFQTFVSCQEQRLIYLPSPWGTCNAVTMDSDFFDSYSITACRIDCETRYLVENCNCRMVHMPGDAPYCTPEQYKECADPALDFLVEKDQEYCVCEMPCNLTRYGKELSMVKIPSKASAKYLAKKFNKSEQYIGENILVLDIFFEVLNYETIEQKKAYEIAGLLGDIGGQMGLFIGASILTVLELFDYAYEVIKHRLCRRGKCQKEAKRNSADKGVALSLDDVKRHNPCESLRGHPAGMTYAANILPHHPARGTFEDFTC
Consider B1, for which the pH50 of activation of acid-evoked currents in CHO cells coexpressing ASIC1a and ASIC2a (whole-cell patch clamp); ASIC1a alone pH50 = 6.7, ASIC2a alone pH50 = 4.0 is 5.4 pH.
